Results published in PMC5861439 (Nucleic Acids Research, 2017).

Experiments:
[1] = tested on: Asf1–H3:H4 complex; assay: NMR 13C-HMQC; assay type: binding, Asf1 Saccharomyces cerevisiae; histones Xenopus laevis; details: Rtt109 added to Asf1–H3:H4–Vps75_2; 50 mM sodium citrate pH 6.5, 150 mM NaCl, 5 mM BME, 850 MHz, 298 K
[2] = tested on: 15N-labeled H3 in the H3:H4 complex; assay: NMR 15N-HSQC CSPs of 15N-labeled histone H3 in the H3:H4 complex; assay type: binding, Xenopus laevis; details: Rtt109 added to Asf1–H3:H4 (15N-labeled H3); 50 mM sodium citrate pH 6.2, 150 mM NaCl, 5 mM BME, 600 MHz, 298 K
[3] = tested on: Rtt109; details: ref [13–14],[21–22]; cited from earlier work

Row | Substance | Asf1 CSPs upon addition of Rtt109 in the presence of Vps75 (in words) [1] | competition with the H3 tail for Asf1 (in words) [2] | acetyltransferase activity alone / activation of Rtt109 by chaperones (in words) [3]
1 | Rtt109: full-length Saccharomyces cerevisiae Rtt109, fungal histone acetyltransferase | large Asf1 CSPs | can out-compete the H3 tail for the same interaction surface on Asf1 | very low acetyltransferase activity
2 | Vps75_2: Vps75 homodimer, histone chaperone (Saccharomyces cerevisiae) | – | – | strongly activated
3 | Asf1: Saccharomyces cerevisiae Asf1 (2–169), histone-specific chaperone | – | – | strongly activated
